Reference: patent US9618524B2, “Method, composition, isolation and identification of a plaque particle and related biomarker” (Plaxgen Inc., priority 2012, dated 2017)

Tests used:
Experiment in all cases: Mass spectroscopy proteomics, semi-quantitative binding affinity of serum proteins (plaqueproteome, Table 2)
Settings in all cases: higher number = stronger affinity
[1] = test system: Low density cholesterol (Chl small) plaque particles; design: species or system human
Outline: (§1)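 Read-out is MS/MS protein identification (Sequest, strict trypsin, 20 ppm parent tolerance; Scaffold probabilities) of serum proteins bound to flow-sorted cholesterol plaque particles. These particles formed when 50% atherosclerotic serum was incubated with 30 μg cholesterol aggregates for 1 hr at 37° C.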

[2] = test system: High Density cholesterol (Chl Large) plaque particles; design: species or system human
Outline: as §1

[3] = molecular target: T1, alpha-synuclein plaque particles (Homo sapiens, UniProt P37840)
T1 construct: 140 amino acids polypeptide
Outline: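 AD-subject plasma or serum (800 μL of 50%) mixed with 30 μg preformed alpha-synuclein aggregates for 1 h at 37 °C; Thioflavin S-positive particles isolated by flow sorting. After reduction, acrylamide alkylation and overnight tryptic digestion, serum proteins identified by MS/MS with Sequest and Scaffold.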

Tau plaque particles = test system: Tau plaque particles; design: species or system human
Outline: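 Synthetic Tau-74 and Tau-275 peptides (1 mg/mL PBS, 37° C, 2 h) aggregated; 30 μg aggregates incubated with 50% serum/plasma 1 h at 37° C, stained with Thioflavin S, and plaque particles sorted by flow cytometry. Bound proteins trypsin-digested and identified by MS/MS against human UniProt.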

[4] = molecular target: T2, Abeta-42 plaque particles (Homo sapiens, UniProt P05067)
T2 construct: Abeta 1-42
Outline: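 AD patient serum or plasma (50% in PBS) was incubated with Abeta-42 aggregates (30 μg) for 1 h at 37 °C, then stained with Thioflavin S for 30 min. Labeled particles were FACS-sorted, trypsin/Lys-C digested overnight and analyzed by MS/MS. Sequest searched human UniProt; Scaffold/Protein Prophet validated the identifications.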

Molecule | Semi-quantitative analysis of proteins binding to different plaque particles: Chl small [1] | Semi-quantitative analysis of proteins binding to different plaque particles: Chl Large [2] | Semi-quantitative analysis of proteins binding to different plaque particles: Synuclein [3] | Semi-quantitative analysis of proteins binding to different plaque particles: Tau (Tau plaque particles) | Semi-quantitative analysis of proteins binding to different plaque particles: Abeta-42 [4]
Selenoprotein P (protein) ESQDQSSLCKQPPAWSIRDQDPMLNSNGSVTVVALLQASUYLCILQASKLEDLRVKLKKEGYSNISYIVVNHQGISSRLKYTHLKNKVSEHIPVYQQEENQTDVWTLLNGSKDDFLIYDRCGRLVYHLGLPFSFLTFPYVEEAIKIAYCEKKCGNCSLTTLKDEDFCKRVSLATVDKTVETPSPHYHHEHHHNHGHQHLGSSELSENQQPGAPNAPTHPAPPGLHHHHKHKGQHRQGHPENRDMPASEDLQDLQKKLCRKRCINQLLCKLPTDSELAPRSUCCHCRHLIFEKTGSAITUQCKENLPSLCSUQGLRAEENITESCQURLPPAAUQISQQLIPTEASASURUKNQAKKUEUPSN | 0 | 0 | 1 | 0 | 0
Serpin B12 (protein) MDSLVTANTKFCFDLFQEIGKDDRHKNIFFSPLSLSAALGMVRLGARSDSAHQIDEVLHFNEFSQNESKEPDPCLKSNKQKAGSLNNESGLVSCYFGQLLSKLDRIKTDYTLSIANRLYGEQEFPICQEYLDGVIQFYHTTIESVDFQKNPEKSRQEINFWVECQSQGKIKELFSKDAINAETVLVLVNAVYFKAKWETYFDHENTVDAPFCLNANENKSVKMMTQKGLYRIGFIEEVKAQILEMRYTKGKLSMFVLLPSHSKDNLKGLEELERKITYEKMVAWSSSENMSEESVVLSFPRFTLEDSYDLNSILQDMGITDIFDETRADLTGISPSPNLYLSKIIHKTFVEVDENGTQAAAATGAVVSERSLRSWVEFNANHPFLFFIRHNKTQTILFYGRVCSP | 0 | 0 | 0 | 0 | 2
Guanine deaminase (protein) MCAAQMPPLAHIFRGTFVHSTWTCPMEVLRDHLLGVSDSGKIVFLEEASQQEKLAKEWCFKPCEIRELSHHEFFMPGLVDTHIHASQYSFAGSSIDLPLLEWLTKYTFPAEHRFQNIDFAEEVYTRVVRRTLKNGTTTACYFATIHTDSSLLLADITDKFGQRAFVGKVCMDLNDTFPEYKETTEESIKETERFVSEMLQKNYSRVKPIVTPRFSLSCSETLMGELGNIAKTRDLHIQSHISENRDEVEAVKNLYPSYKNYTSVYDKNNLLTNKTVMAHGCYLSAEELNVFHERGASIAHCPNSNLSLSSGFLNVLEVLKHEVKIGLGTDVAGGYSYSMLDAIRRAVMVSNILLINKVNEKSLTLKEVFRLATLGGSQALGLDGEIGNFEVGKEFDAILINPKASDSPIDLFYGDFFGDISEAVIQKFLYLGDDRNIEEVYVGGKQVVPFSSSVKETIHLPASSPHPPPFP | 0 | 0 | 0 | 0 | 5
Peroxiredoxin-1 (protein) SSGNAKIGHPAPNFKATAVMPDGQFKDISLSDYKGKYVVFFFYPLDFTFVCPTEIIAFSDRAEEFKKLNCQVIGASVDSHFCHLAWVNTPKKQGGLGPMNIPLVSDPKRTIAQDYGVLKADEGISFRGLFIIDDKGILRQITVNDLPVGRSVDETLRLVQAFQFTDKHGEVCPAGWKPGSDTIKPDVQKSKEYFSKQK | 0 | 0 | 0 | 0 | 5
Isoform 2 of Nucleophosmin (protein) MEDSMDMDMSPLRPQNYLFGCELKADKDYHFKVDNDENEHQLSLRTVSLGAGAKDELHIVEAEAMNYEGSPIKVTLATLKMSVQPTVSLGGFEITPPVVLRLKCGSGPVHISGQHLVAVEEDAESEDEEEEDVKLLSISGKRSAPGGGSKVPQKKVKLAADEDDDDDDEEDDDEDDDDDDFDDEEAEEKAPVKKGQESFKKQEKTPKTPKGPSSVEDIKAKMQASIEKGGSLPKVEAKFINYVKNCFRMTDQEAIQDLWQWRKSL | 0 | 0 | 0 | 0 | 4
Carboxypeptidase N catalytic chain (protein) VTFRHHRYDDLVRTLYKVQNECPGITRVYSIGRSVEGRHLYVLEFSDHPGIHEPLEPEVKYVGNMHGNEALGRELMLQLSEFLCEEFRNRNQRIVQLIQDTRIHILPSMNPDGYEVAAAQGPNKPGYLVGRNNANGVDLNRNFPDLNTYIYYNEKYGGPNHHLPLPDNWKSQVEPETRAVIRWMHSFNFVLSANLHGGAVVANYPYDKSFEHRVRGVRRTASTPTPDDKLFQKLAKVYSYAHGWMFQGWNCGDYFPDGITNGASWYSLSKGMQDFNYLHTNCFEITLELSCDKFPPEEELQREWLGNREALIQFLEQVHQGIKGMVLDENYNNLANAVISVSGINHDVTSGDHGDYFRLLLPGIYTVSATAPGYDPETVTVTVGPAEPTLVNFHLKRSIPQVSPVRRAPSRRHGVRAKVQPQARKKEMEMRQLQRGPA | 0 | 0 | 0 | 1 | 0
Dermcidin (protein) YDPEAASAPGSGNPCHEASAAQKENAGEDPGLARQAPKPRKQRSSLLEKGLDGAKKAVGGLGKLGKDAVEDLESVGKGAVHDVKDVLDSVL | 0 | 0 | 0 | 0 | 2
